This is an account of results in article PMC5428419.

The target in this assay is biotinylated sRAGE from transgenic silkworms co-expressing BirA and fed biotin bait (human) (UniProt Q15109). The assay can be described thus: SPR; Biacore 2000; biotinylated sRAGE on SA sensor chip via the C-terminal biotin, about 560 RU; F-AGEs 0.25-4 uM injected, single-cycle kinetics, 30 uL/min, 25 C, PBS (-); 1:1 Langmuir model.
UniProt Q15109, sequence (Q15109 23-332): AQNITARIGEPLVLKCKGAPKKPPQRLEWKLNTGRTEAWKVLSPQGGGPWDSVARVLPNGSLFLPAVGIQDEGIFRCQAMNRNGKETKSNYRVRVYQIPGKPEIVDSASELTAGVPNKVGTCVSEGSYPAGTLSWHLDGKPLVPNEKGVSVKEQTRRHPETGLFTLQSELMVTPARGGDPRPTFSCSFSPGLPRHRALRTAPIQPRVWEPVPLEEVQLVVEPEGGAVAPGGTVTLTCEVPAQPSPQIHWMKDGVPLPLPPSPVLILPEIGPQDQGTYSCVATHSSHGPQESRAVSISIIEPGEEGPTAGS

As for “fructose-BSA (fructose-derived AGE-BSA) (from UniProt P02769 25-607) (ligand)”, the Kd amounted to 725 nM, the off-rate constant (koff) came out at 0.00165 s⁻¹ and the kon stood at 7250 M⁻¹ s⁻¹.
